Experimental data: the DeepSol protein solubility set

test: soluble on expression in E. coli; label from the status in PepcDB or PDB records

Sequence | soluble on expression in E. coli
MGSDKIHHHHHHMWHLFLECAFKIFLFEHSFKYFLNNFSKLGRLIIPSLKKTQIMRNAEFDRKAVLCAAMSVFTAKGYAKTSMQDLTKATGLHPGSIYCAFENKKGLLIAAIGQYQDERHQQFVRLFDNDAPCLSNLSNYLTEIVDECLSQDMSKACLLTKTLNEVGSQDEEIKTLITANLTAWQAALTAVFSLAQKNNEIDSQANSQELAQYLMMGIYGLRTFAHTHKDGQQLAQLAKKLLADVSR | not soluble
MAKAGGITNAVNVGIAVQADWENREFISHISLNVRRLFEFLVQFGKPHSLTYFSVLGFEFN | not soluble
MTSKTSESGTGTQSTIVQLRNLPDLTEISHLEIDAPVVEILKKTVLFQLNSLNICISNFALDELVNLVTVQMDGMFRNLHNLTLLQRRSQASQADLKLLLREFNLDAPSLYQQFQASEFIKSKHSTEYEKLMSWSSLAALPHNEEDEEDELNNIEEQQNEINVLLPPSNPLEKQIPSWLPNFPPDHTYKFTPEFNHPITDLKTIKKEIVKESQESEKALLNLNKSLSHISSASNTPQPPGLDDEDAIEQQLEIWGNALEERKPTITEKSFNENNIEQYAKYRVELARERVTKFEVNQLKRTKNPFLKISETLYLPESPHQSHKTIQKTIELQFRKSMTLFMHNLPKVQKLKKEKIRMAKEERAKSLKRRQEELISQRTKREQDEGHDLELLLNNEHARDAADDTTTPNALNNSTIVINTNAEDEDDDINLFGILGSSEDENEMSSMPAENLVAESEPPTMTAQDTTNTTPVAHNTTNIDATTSHSPHSTPNENAPTSPPADIATDHDITM | soluble
MSNTIRLSGIAYESLVNGPGIRRVFFSQGCKHNCIGCFNPDTHDFNGGEERDIEELIKDLADNPFIDGVTFSGGDPLEQANKFIYIAKAARELGLNIWSYTGYKFEYLLEHANEFNKWKEYLENIDVLVDGKFDINKKEDGLKFRGSSNQRIINVKESLKEGKVIELEFLEHHHHHH | not soluble
MKKLLIMLIRFYQRYISPLKPPTCRFTPTCSNYFIQALEKHGLLKGTFLGLRRILRCNPLSKGGYDPVPEEFSFKPRRRWS | soluble
MGSDKIHHHHHHSCKQAPDAGVKSSYAVMQIEPTDKELSSSYSATIRGRQDIDIYPQVSGTIEKLCVTEGQKVRRGQLLFIIDQVPYRAALKTATANVEAARAATSTAELTYKSNKELYAQKVVSEFSLKTAENSYLTAKAQLAQAEAQEISARNNLSYTEVKSPSDGVVGALPYRAGALVSANIPYPLTTVSDNSDMYVYFSMTENQLLALTRQYGDMDEALKNMPEVELILNDNSVYQKKGTIESISGVIDRQTGTVVARVVFPNESRLLHSGASGTVVVPSIYKNCIAIPQTATVRMQDKTIVYKVVDGKAVSTLITVAGINDGREYVVLDGLKAGDEIVSEGAGLVREGTQVK | not soluble
MNPYQAHRIKKLKYQLENAESYEEWKSTALQLDEETGLQEWKYDNCSAYFDAELISYRLNLLRKYRLQQRVMDSVYLLQEGLTHDIANIGHPMLFAATYVGTKQIIEDYIEEVSLSLAFIAASQCQTLTVAEKLKFFKNCQKTYGLEHHHHHH | not soluble
MSLGDSEIYVSLDIGTASVKVIIAEMADDRLNIIGVGNVESSGIKKGIIIDIHKTVESIKKAIEQAERMVGVEISQVIVGVVSSQVHLEACRGIVAVGSENREITDEDVWNVMDAAQVVPLSPEREIINTIPDQFVVDGLTGITDPRGMIGVRLEMEGTLITGSKTILHNTLRCVERAGLEISDIALQPLAEASISLSEDDKEFGTALVNVGAGTTTVSVFEQGRLTYTGVIPVGGDNITKDLSLGLNTSTANADRVKLDHGYAFYDDASPDEVFAIDVIGSDQKQHFTQVEVADIIEARMEEIFQLVVEELTRVGKTHLPGGYVLTGGSMAIPGAIDLAGKTLAAHVRLAIPDYIGVREPSFTTAVGLIKYAYQMVELEGRDVSSEGHHHHHH | soluble
MGSDKIHHHHHHMAVRMLDIARRFNMLSERIRRESVELGIPAIDPEDGLILSSAAFYVGGGTGSYVDAGAGIGYSTIWIAYGAYHRCTDITCKIVAIEYDVELASILSRNLREVEAMFRGRIEFEVVSGDALDYFSRLEEKGREVFDMAFVDIEKGDYPEALERLENLLTAGGVAAFYNAFQPPPPPLFFDMVSKRPWKPVVLPTPAGLLLAVKTAG | not soluble
MAHHHHHHMMRRVPITVSFDALDTLIQITRGLGYQYRSSYASFLLAHGIDLDATCPNATCEAVQELALKAIRDQVRAERAAWTRSANPKEMPIGGDTDEELRSFWARVLRQTYTCATLYDGAAADVVQRIEELWGDHHNEVRCFEDYVLFDQFSSTKAHSWCPEGLRTLQCLRKWNQVQMSCDESAVRPGLADTKPASDLDVFSPSSAAASPVLFLAAPPFVVSNMDPRIRGVFMQLGAFEAGESGEPPLLSRIISARDTGYAKPSPAGILTGVRDIAASYRAACQSCGACDAGVDVHRHVHVGDADADRVACERAGCHFVQCDPATGVTWGLLQAKLQELEALYGSAPLPH | not soluble
MFGMSVFHSVLERLKAEQAEELTNEARGGWRGTVIGAAPGFIAESSAHAWASRGAVEQAYRALAADERSEPFSMPDYLTRTSLAEVASELALGEAETALTLAAKRRRFAAANHPDRLPVEARVNATLRMKLANMLIDEALRRIEKPTVTG | not soluble
MNIVSTSVALLLAAASAEVENRKSSNATEVNMTETAQIENHPYVGMWVTGDGHIRQELLPNGRYDEARGKRKSAYQGRYEVKGNHIDYWDDTGFTADGEFVDDVLHHGGMIFYRQK | not soluble
GKITFFEDRSFQGRCYECSSDCPNLQTYFSRCNSVRVDSGCWMLYERPNYQGHQYFLRRGEYPDYQQWMGFSDSIRSCRLIPHAGSHRMRLYEKEDHKGVMMELSEDCSCIQDRFHLSEVRSLQVLEGCWVLYEMPNYRGRQYLLRPQEYRRFQDWGSVDAKAGSLRRVVDLY | soluble
MSCRFYQHKFPEVEDVVMVNVRSIQEMGAYVSLLEYNNIEGMIHLSELSRRRIRSINKLIRIGRNECVKVIRVDKEKGYIDLSKRRVSPEEAIKCEDKFTKSKTVYSILRHVAEVLEYTKDEQLESLFQRTAWVFDDKYKRPGYGAYDAFKHAVSDPSILDSLDLNEDEREVLINNINRRLTPQAVKIRADIEVACYGYEGIDAVKEALRAGLNCSTENMPIKINLIAPPRYVMTTTTLERTEGLSVLSQAMAVIKEKIEEKRGVFNVQMEPKVVTDTDETELARQMERLERENAEVDGDLEHHHHHH | soluble
MHHHHHHNEEFRPEMLQGKKVIVTGASKGIGREMAYHLSKMGAHVVLTARSEEGLQKVVSRCLELGAASAHYIAGTMEDMTFAEQFIVKAGKLMGGLDMLILNHITQTSLSLFHDDIHSVRRVMEVNFLSYVVMSTAALPMLKQSNGSIAVISSLAGKMTQPMIAPYSASKFALDGFFSTIRTELYITKVNVSITLCVLGLIDTETAMKEISGIINAQASPKEECALEIIKGTALRKSEVYYDKSPLTPILLGNPGRKIMEFFSLRYYNKDMFVSN | soluble
MGSDKIHHHHHHMLERAVTYKNNGQINIILNGQKQVLTNAEAEAEYQATLQKNEAKHGILKEIEKEMSALVGMEEMKRNIKEIYAWIFVNQKRAEQGLKVGKQALHMMFKGNPGTGKTTVARLIGKLFFEMNVLSKGHLIEAERADLVGEYIGHTAQKTRDLIKKSLGGIWFIDEAYSLARGGEKDFGKEAIDTLVKHMEDKQHEFILILAGYSREMDHFLSLNPGLQSRFPISIDFPDYSVTQLMEIAKRMIDEREYQLSQEAEWKLKDYLMTVKSTTSPIKFSNGRFVRNVIEKSIRAQAMRLLMGDQYLKSDLMTIKSQDLSIKEEASGSA | not soluble
MFRMLNSSFEDDPFFSESILAHRENMRQMIRSFSEPFGRDLLSISDGRGRAHNRRGHNDGEDSLTHTDVSSFQTMDQMVSNMRNYMQKLERNFGQLSVDPNGHSFCSSSVMTYSKIGDEPPKVFQASTQTRRAPGGIKETRKAMRDSDSGLEKMAIGHHIHDRAHVIKKSKNKKTGDEEVNQEFINMNESDAHAFDEEWQSEVLKYKPGRHNLGNTRMRSVGHENPGSRELKRREKPQQSPAIEHGRRSNVLGDKLHIKGSSVKSNKKLEHHHHHH | soluble
MAEHRSMQRAALLDAARSLLSDGGTEALTFPALAERTGLARSSVYEYFRSRAAVVEELCAVDFPVWAAEVEAAMERETAPDAKVEAYVRTQLDLVGDRRHRAVVAISASELDAGAREKIRAAHGGLIAMIVEALGEMGHGQPRLAAMLLQGVVDAAVRRIELGAAEEPGAITEAAVSMALRGVRG | not soluble
MKAVVQRVTRASVTVGGEQISAIGRGICVLLGISLEDTQKELEHMVRKILNLRVFEDESGKHWSKSVMDKQYEILCVSQFTLQCVLKGNKPDFHLAMPTEQAEGFYNSFLEQLRKTYRPELIKDGKFGAYMQVHIQNDGPVTIELESPAPGTATSDPKQLSKLEKQQQRKEKTRAKGPSESSKERNTPRKEDRSASSGAEGDVSSEREP | soluble
MDSSFTPIEQMLKFRASRHEDFPYQEILLTRLCMHMQSKLLENRNKMLKAQGINETLFMALITLESQENHSIQPSELSCALGSSRTNATRIADELEKRGWIERRESDNDRRCLHLQLTEKGHEFLREVLPPQHNCLHQLWSALSTTEKDQLEQITRKLLSRLDQMEQDGVVLEAMS | not soluble
RQTRIMDSAQYAEFCESRQLSFSKKASKFRDWLDCSSMEIKPNVVAMEILAYLAYETVAQLVDLALLVRQDMVTKAGDPFSHAISATFIQYHNSAESTAACGVEAHSDAIQPCHIREAIRRYSHRIGPLSPFTNAYRRNGMAFLAC | soluble
MGSDKIHHHHHHMAEAQLSLNLDIKHDASLSDFSGPGWMSIIDAVRQLHVGLIGQLYLFGSPATGKSHLLSAICESFIEMDKSAICLSLNELIHTDVNVLSSLENFSLIAIDDLEVIEQNSQWQEALFHLINRSREGQRQLLFAANKPASELPFQLRDLLTRLAQAPSFKVPTGHDLADREALLQSILRRRGWQFDERIANYLLTEGPHRIGAMMEVLNYIQPMFSNLGRSNISKAVIGDALRTIDEQTLAAELADIAQESQVDNDAADQDQHSQHTMPLDF | not soluble
MFGISFSELLLVGLVALLVLGPERLPGAARTAGLWIGRLKRSFNTIKQEVEREIGADEIRRQLHNEHILSMEREAQKLLAPLTGQNPPQETPPPAAESPAPSVPTPPPTSTPAVPPADAAAPPAVAASTPPSPPSETPRNPLEHHHHHH | not soluble
MSGNSLKGKRIGFGLTGSHCTYDAVFPEIEKLVNEGAEVLPIVTYTVKTTNTRFGEGEEWVKKLEQLTGNEVIDTIVKAEPLGPKIPLDCMVIAPLTGNSMSKLANAMTDSPVLMAAKATMRNHRPVVLGISTNDALGLNGVNLMRLMAAKNIYFIPFGQDAPQAKPNSMVAYMPLLRDTILAALEGKQLQPVIIERFRYN | not soluble
MSLKLSNERAEWQAQMKKSVISEERQRLARDLHDAVSQQLFAISMMTSAVLEHVKDADDKTVKRIRMVEHMAGEAQNEMRALLLHLRPVTLEGKGLKEGLTELLDEFRKKQPIDIEWDIQDTAISKGVEDHLFRIVQEALSNVFRHSKASKVTVILGIKNSQLRLKVIDNGKGFKMDQVKASSYGLNSMKERASEIGGVAEVISVEGKGTQIEVKVPIFPEEKGENERDSSIIDEGHHHHHH | soluble
